# Assay: soluble on expression in E. coli; label from the status in PepcDB or PDB records
row,Sequence,soluble on expression in E. coli
1,MRTPYCVADYLLDRLTDCGADHLFGVPGDYNLQFLDHVIDSPDICWVGCANELNASYAADGYARCKGFAALLTTFGVGELSAMNGIAGSYAEHVPVLHIVGAPGTAAQQRGELLHHTLGDGEFRHFYHMSEPITVAQAVLTEQNACYEIDRVLTTMLRERRPGYLMLPADVAKKAATPPVNALTHKQAHADSACLKAFRDAAENKLAMSKRTALLADFLVLRHGLKHALQKWVKEVPMAHATMLMGKGIFDERQAGFYGTYSGSASTGAVKEAIEGADTVLCVGTRFTDTLTAGFTHQLTPAQTIEVQPHAARVGDVWFTGIPMNQAIETLVELCKQHVHAGLMSSSSGAIPFPQPDGSLTQENFWRTLQTFIRPGDIILADQGTSAFGAIDLRLPADVNFIVQPLWGSIGYTLAAAFGAQTACPNRRVIVLTGDGAAQLTIQELGSMLRDKQHPIILVLNNEGYTVERAIHGAEQRYNDIALWNWTHIPQALSLDPQSECWRVSEAEQLADVLEKVAHHERLSLIEVMLPKADIPPLLGALTKALEACNNA,soluble
2,MGSDKIHHHHHHMIDLHCHILSGIDDGAQTITDSLAMAQQAVAEGIHTIVATPHHQNGKYVNERASIIHQVKQLNDELQQHEIPLKVLPGQEVRLYGGLLEDYEAGKIVTLNETNKYIFIEFPSNHVPRYTEQLFYELRVKGMIPIIVHPERNAELIERPDKLYNLVNKGALTQVTAGSLLGKFGKKIKRFSLQLVEHNLTHMIASDAHNTTSRGFHLEESYELIEKEFGTTVMNDLRENPYLIISGKAIYKEDPEQIRRKKLFGIF,not soluble
3,MIRLLTLLALLLPVPGWAGCRQALALGLDVSGSVDGREYRLQLDGLAAALLAPEVQARLLAMPGHPIRLAVYEWSEPGFQRLILPWHQIDTAADLETVAATLRTTRRAAAPPGTAIGPAMHHGAALLAQQPDCWKRTLDLSGDGKHNMGPHPRVVKAALEGSGLTVNALVIGADSTTFTDLRQTQIGELSAYYGAWVILGPDAFVEVALGYEDYQAAMERKLRRELEGLVLSALPTRAATQLHAPVLPWPVLPQAAALEHHHHHH,not soluble
4,MAHHHHHHMATNPDIETDIPRDVYQFFRGLNRAVERRDAAAMHDLYESQFDALTKNYYMAGHGQFRSWPALRLEQVSSCFRGNHMAELVYSFLFYKHLFMDNRSVRAPDAEGAWKTYSELLPMLKSYELPNWMLWDIFDEFLYQMTVVYQKVFVTEGIWAVPEVSRLLNEVIDNSRLLELVKQPDFLEDIHRGPNTGALSGFYAIVTKSKLNVLLGDYYSALTDLEPLDVYNKGRAVLTRVSPCAVSVFYHIGFSYLMIHRFEDASNAFRRCVTVKLNGRRFSERVQQDAAYMYVCARVLGGMPINNLTSYLDSRKVAAFEDDRESLRTGDEERFRDVFDRCSPKFLTVPPSDGSPVKGSEGRELQARMFRRAVQQQQDIIKLRGYFKVYQNTKMNLLETLLEVDDGYAPLFALKMRSRQLVHDGVTADLLQGVFTSSSEFDCIVQDDNVEVVPSMTFGGIEQKLLNKIKNTQRDIEVAKRKFNQTRNRDEGGNKRKDQRDQKRRPNQQQLHGGVGNNAGSANRSSNNVNRHPRQKMAAQPMTSNLFNRNDN,soluble
5,MRITFIGGGNMAGAIIGGLARQGGHRIHVVEHQQDKLDQLAAGFGCSGSQALPERFAADEVVVLAVKPQQLRELCLALAPVLNGALVVSIAAGIRLDALARWLGSRRIVRVMPNTPAMVGKGVSGLYADAAVSAADRDAAETVMRAAGLTVWLADEAGIDDITCVSGSGPAYVFYFIESMIEAAAKAGFGEDKARELVLATFDGAVELARQSPLPVAELRRNVMSKGGTTERAIARFEAEGVKAAIVAGAMDCRDRSIEMGRELSQELEHHHHHH,soluble
6,MGSDKIHHHHHHMATLLLEDGTIESNLDEIARELAPLGVYIKHYDPGTSILFPHLLIQDALTDKEKCHIVDLHNSVFEFIQQENGYLWCDLLNVHPGSPNLQTLIATYAKYHTHTAPEALYVLAGEMIFGFVKPDGSQVQLLVQSQDYLHIPSGVEHWCSLTASLSFKAVRYFTAADGWVPNYTGTQLNDSLNK,not soluble
7,MKVYVGNLGTGAGKGELERAFSYYGPLRTVWIARNPPGFAFVEFEDPRDAEDAVRGLDGKVICGSRVRVELSTGMPRRSRFDRPPARRKLLEVLFNGPLEH,soluble
8,MGSDKIHHHHHHMSTLRLLISDSYDPWFNLAVEECIFRQMPATQRVLFLWRNADTVVIGRAQNPWKECNTRRMEEDNVRLARRSSGGGAVFHDLGNTCFTFMAGKPEYDKTISTSIVLNALNALGVSAEASGRNDLVVKTVEGDRKVSGSAYRETKDRGFHHGTLLLNADLSRLANYLNPDKKKLAAKGITSVRSRVTNLTELLPGITHEQVCEAITEAFFAHYGERVEAEIISPNKTPDLPNFAETFARQSSWEWNFGQAPAFSHLLDERFTWGGVELHFDVEKGHITRAQVFTDSLNPAPLEALAGRLQGCLYRADMLQQECEALLVDFPEQEKELRELSAWMAGAVR,not soluble
9,MNGCKQSASKVFKLVGGFNKASSRCFSSEKLIPKDLKIVKNPTSEQIKQFQKLVGDFNDIKLLKETMKDNYQLYLLCHKDSTVLSGTQSITYKSLNRSIPDFQTFGLSYQPDNTYNLLPHLMHEMATDFKSVKMNSGGCVDSKYAAVWRKVLHTKVRGPTYYVSHYKPDEVFNPELEFDDVVVKKFSDVPVEHVVKYDNSIFPYERKEYILAKFKNGVGRVAYNKSGEVIGIGLVSTESSGNCEIGPIYCDNKNAAQAIFQSIIQDLPMKDLKDVLVRCSDKFEDSATWIRPFLRRSHEMTPFAHIKFNRVIPDGLNFSKVFVSSNPSNAPC,not soluble
10,MAMNLRKNQAPLYIKVHEIDNTAIIVNDGGLPKGTVFSCGLVLEEDVPQGHKVALTDLNQGDEIVRYGEVIGFADETIKRGSWIREALVRMPAP,not soluble
11,MGSDKIHHHHHHMYLITSAAMVASELQSEFGPLPPCFLPVGNKRLFHHQLALIPAGERTIITLPEGFTPGPYDSQSLKDYGVELLYLPPTLSLGESIVYALIQLEFADDEPLYILHGDTLFDSLPRQTDCLGLSQVEDNYNWAEFDAQSGTLRPYHAELRPSSELISNGFFSFSAPRTLIRYITQAKGDFIAGLNGYIDDKGLTPITLPHWYDFGHSHTYYQSKSRMTTQRAFNGMAIQGQVVKKFSRNKHKLAAEANWYQSLPGPMRGYIPQLLGCDESPELFGYSIEYLHLTALNELYVFSQLPAFAWRKVLKACCQFLKDASSYSVADAQTLSGLFMDKTLSRLEDFASQSGISVAQENRINGALRPSLLELARISREYLPKDNGRQHLLHGDFCFSNILYDFRTCNIKVIDPRGLDGNDKQTIHGNGLYDIAKLAHSVLGLYDAIIAGYFKAERLGQNLDFSIAITPRREQIMADFVRLMASEFAVSEAELYAMQIQLFLSMLPLHSDRPDRQLGFIGNAYRLYDRLLACTGNPS,not soluble
12,MAFFESDIVQDEAKRLFGDYQQLMQLGSEYGKFDREGKKKFIETMEELMGRYRVFMKRFELSEDFQAKLTVEQLRTQLSQFGITPEQMFEQMNATLERMKAQIELPPSS,not soluble
13,MQAKEEKEFTLQERRCLIVWVYTLKPLKQLRRYGLIHYVSRKMKYVVIYMNEENIESNMEKINQLHFVRSVDKSYRPDVEMNFAEKIGTKAAYQEQEDDGYVVEELSTEIRLAENV,not soluble
14,LSAPDSITVTVADHNGVAVLSIGGEIDLITAAALEEAIGEVVADNPTALVIDLSAVEFLGSVGLKILAATSEKIGQSVKFGVVARGSVTRRPIHLMGLDKTFRLFSTLHDALTGVRGGRIDR,soluble
15,GPLGSEQIGKLRSELEMVSGNVRVMSEMLTELVPTQAEPADLELLQELNRTCRAMQQRVLELIPQIANEQLTEELLIVNDNLNNVFLRHERFERFRTGQTTKA,soluble
16,MQVLTTSRKPGRKTRRFAKVLARFFNWKYVNRGKLSLEDLAGIAERFWIISEVKGNPAILNLYERGEKTLEVSFTLSNVNKIKMDDSPAVFKGKAPIDPLVFGAIPQTKAGLKLTRKVEFRKKVVVKGDEWLFFYDDEMLFKLRILKISRSSR,not soluble
17,MNWNKRLLDTPIIGDITKKIVSAKASREAHNISDHFTQFLQPCVAVSQTLKEEAFKIRHNVYCEELAFEEVRDNGQETDEFDHQSMFSLIKHKPSGTFTSCVRLVTSSGPDELLPIEKYCMGSITNEELSPKRFNRNEIAEISRLAVKSDFRRRKADNYKGSGTGVISEITYSETELRCFPFIAIGLYMAAATMSMNTGIRHVYVMMEPRLARSMKFIGINFQQLGPPVDYHGLRAPYYINPEIFMKNLSPGFKSLFSIIEEDICSQLNQLDLA,not soluble
18,MIPQRIKELEAYKTEVTPASVRLSSNEFPYDFPEEIKQRALEELKKVPLNKYPDPEAKELKAVLADFFGVKEENLVLGNGSDELIYYLSIAIGELYIPVYIPVPTFPMYEISAKVLGRPLVKVQLDENFDIDLERSIELIEKEKPVLGYFAYPNNPTGNLFSRGKIEEIRNRGVFCVIDEAYYHYSGETFLEDALKREDTVVLRTLSKIGMASLRVGILIGKGEIVSEINKVRLPFNVTYPSQVMAKVLLTEGREFLMEKIQEVVKERERMYDEMKKIEGVEVFPSKANFLLFRTPYPAHEVYQELLKRDVLVRNVSYMEGLQKCLRVSVGKPEENNKFLEALEESIKSLSSSL,soluble
19,DVKVQGCVEDADLLIVGFGGTYGHLYSAMEEMNHAGKKVALAHFVHLNPLPHNTAEVLKKYKKVVVAEQNLGQFAGYLRMKVDGFVPYQFNEVKGQPFVVSELVDAFTEILNK,not soluble
20,MGSDKIHHHHHHVTSLISVKRLNKSFPGVRALHEVQFELMAGEVHALMGENGAGKSTLMKILAGVYTRDSGEILYDGQPVEFLSPRDAQAVGVGIIHQELQLMNHLTVAQNIFIGREPRGRLGLLLDEDRLNAQAAAILARMHVSLDPRAVVGALTVARQQMVEIAKALSFDSRVLIMDEPTSALNDAEIAELFRIIRELKSRGVGIVYISHKMDELKQIADRVTVMRDGEYVATVAARDTSVEAIIGMMVGRTLTDIAPSHSVADQGEIALEVRNLNAGPLVRDVSFALRKGEILGFAGLMGAGRTEVARAVFGADPVESGEIVVNGARATIRTPSDAVAHGIGYLSEDRKRFGLATGMDVESNIVMSNLRKFLSLNFFLRRAQIRRTASHFISLLGIRTPSATQAVRLLSGGNQQKIVIAKWLERDCDVLFFDEPTRGIDVGAKNEIYKLLRSLAGEGKAVVMISSELPEILRMSDRVIVMCEGRITGELSAAEATQERIMHLATRRETLKTAA,not soluble
21,MAHHHHHHMSFKEMRLAFEGSKNIYESSLLTFKGVDGYDVYNCSLLFQYKGKHHLFGRFERREKSSDSRVRLFVETGKDEYTVVPDQLTYQLEDPFVSKVQGSLFFGGTQVIKSGGNVTGYFCDFYHGMPQLLTYYTTGPDLMRSIRIVQLADGTIGIFSCHKTEGSCLIGFTTVNSLNEVTREVIAEAKPINNAPFLGAWGGVNQAYLLSSGNIGCICHHGYLDKDANGEQRNVCCITSFVYDPKRNNTHTFQLIGTRGCFPDCPSKSPSVADCAFASGIVMREDGKCDLYSGLGDTHEGRITIDYPFKGYGTVVNDLVF,soluble
22,QRGIINQRRERLVAADLMGAATVTASTVKYIVEKANRIASGAPATVAEGTKKPYVKYADFDVVTESLSKVAALAKFTDEMIEDYDFVASWINNNLVYDLSVVEEKQLINGDGRGSNIKGLLNREGIQTHKSAKQADWFNDLFKAKNKVSQATNLEADGIMINPVNYEALRLTKDGNGQYIAGGPFQGQYGNGNILIDPPLWGIKTVVSNAVPAGTAIVGAFRQGATVLRKGGVRVDSANTNADDFENNLVTLRAEERLGLMVPLPAAFVKVTLEETTEEL,not soluble

# Reference: the DeepSol protein solubility set
